The target in assay [1] is T1, kallikrein related peptidase 2 (hK2), soluble (human, UniProt P20151 19-261, biotin label in the CAR staining assays (site not stated)).
T1 construct: also called KLK2; human KLK2 protein
The experiment in a line: SPR; bispecific antibody captured on anti-Fc sensor chip, soluble hK2 injected; 1:1 Langmuir fit.

Assay [2] concerns the target T1, kallikrein related peptidase 2 (hK2), …. As to the kind of experiment: flow cytometry, primary human T cells transduced with the CAR lentivirus (MOI 3), biotinylated hK2 (1 ug/ml) then streptavidin-PE, 14 days after transduction; UTD gate 0.086 [contd]. For orientation: Flow cytometry measures light scatter and fluorescence of single cells or particles in a stream.

The target is the same in assay [3]. The experiment in a line: flow cytometry, primary human T cells transduced with the CAR lentivirus (MOI 3), biotinylated hK2 (1 ug/ml) then streptavidin-PE, 14 days after transduction; UTD gate 0.086.

T1 sequence (P20151 19-261): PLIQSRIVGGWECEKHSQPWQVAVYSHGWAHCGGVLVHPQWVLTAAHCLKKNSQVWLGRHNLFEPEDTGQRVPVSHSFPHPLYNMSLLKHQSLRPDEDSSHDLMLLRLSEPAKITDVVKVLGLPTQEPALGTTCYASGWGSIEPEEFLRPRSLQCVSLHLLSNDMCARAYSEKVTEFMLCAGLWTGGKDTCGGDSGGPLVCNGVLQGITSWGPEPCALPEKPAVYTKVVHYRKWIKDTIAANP

B1: KL2B30 Fab arm of an hK2/CD3 bispecific antibody (Table 39) (bispecific antibody)
chain 1: QVQLQESGPGLVKPSETLSLTCTVSGGSISSYYWSWIRQPPGKGLEWIGYIYYSGSTNYNPSLKSRVTISVDTSKNQFSLKLSSVTAADTAVYYCAGTTIFGVVTPNFYYGMDVWGQGTTVTVSSASTKGPSVFPLAPSSKSTSGGTAALGCLVKDYFPEPVTVSWNSGALTSGVHTFPAVLQSSGLYSLSSVVTVPSSSLGTQTYICNVNHKPSNTKVDKKVEPKSCDKTHTCPPCPAPEAAGGPSVFLFPPKPKDTLMISRTPEVTCVVVSVSHEDPEVKFNWYVDGVEVHNAKTKPREEQYNSTYRVVSVLTVLHQDWLNGKEYKCKVSNKALPAPIEKTISKAKGQPREPQVYVLPPSREEMTKNQVSLLCLVKGFYPSDIAVEWESNGQPENNYLTWPPVLDSDGSFFLYSKLTVDKSRWQQGNVFSCSVMHEALHNHYTQKSLSLSPG
chain 2: DIQMTQSPSFLSASVGDRVTITCRASQGISSYLAWYQQKPGKAPKFLIYAASTLQSGVPSRFSGSGSGTEFTLTISSLQPEDFATYYCQQLNSYPLTFGGGTKVEIKRTVAAPSVFIFPPSDEQLKSGTASVVCLLNNFYPREAKVQWKVDNALQSGNSQESVTEQDSKDSTYSLSSTLTLSKADYEKHKVYACEVTHQGLSSPVTKSFNRGEC
chain 3: DIQMTQSPSSLSASVGDRVTITCRARQSIGTAIHWYQQKPGKAPKLLIKYASESISGVPSRFSGSGSGTDFTLTISSLQPEDFATYYCQQSGSWPYTFGQGTKLEIKGGSEGKSSGSGSESKSTGGSEVQLVESGGGLVKPGGSLRLSCAASGFTFSRYNMNWVRQAPGKGLEWVSSISTSSNYIYYADSVKGRFTFSRDNAKNSLDLQMSGLRAEDTAIYYCTRGWGPFDYWGQGTLVTVSSEPKSSDKTHTCPPCPAPEAAGGPSVFLFPPKPKDTLMISRTPEVTCVVVSVSHEDPEVKFNWYVDGVEVHNAKTKPREEQYNSTYRVVSVLTVLHQDWLNGKEYKCKVSNKALPAPIEKTISKAKGQPREPQVYVYPPSREEMTKNQVSLTCLVKGFYPSDIAVEWESNGQPENNYKTTPPVLDSDGSFALVSKLTVDKSRWQQGNVFSCSVMHEALHNHYTQKSLSLSPG
Broadly, the Kd is the concentration at which binding is half-saturated. A lower Kd goes with tighter binding. In assay [1], B1 registered a Kd of 2 nM.

B2: CAR8 (LH_LCB7_HCF3_20AA) (other)
chain: DIVLTQSPDSLAVSLGERATINCKASESVEYFGTSLMHWYQQKPGQPPKLLIYAASNRESGVPDRFSGSGSGTDFTLTISSVQAEDVAVYYCQQTRKVPYTFGQGTKLEIKGGSEGKSSGSGSESKSTGGSQVQLQESGPGLVKPSDTLSLTCAVSGNSITSDYAWNWIRQFPGKGLEWIGYISYSGSTTYNPSLKSRVTISRDTSKNQFSLKLSSVTPVDTAVYYCATGYYYGSGFWGQGTLVTVSSTSTPAPRPPTPAPTIASQPLSLRPEACRPAAGGAVHTRGLDFACDIYIWAPLAGTCGVLLLSLVITLYCKRGRKKLLYIFKQPFMRPVQTTQEEDGCSCRFPEEEEGGCELRVKFSRSADAPAYKQGQNQLYNELNLGRREEYDVLDKRRGRDPEMGGKPRRKNPQEGLYNELQKDKMAEAYSEIGMKGERRRGKGHDGLYQGLSTATKDTYDALHMQALPPR
notes: Chimeric antigen receptor on JNL cells or primary human T cells; also called hK2 CAR; pDR000083443
On to B2, for which the “% of cells in the hK2CAR+ CD3+ gate” value in assay [2] was 21.5%.

B3: CAR9 (LH_LCB7_HCG5_20AA) (other)
chain: DIVLTQSPDSLAVSLGERATINCKASESVEYFGTSLMHWYQQKPGQPPKLLIYAASNRESGVPDRFSGSGSGTDFTLTISSVQAEDVAVYYCQQTRKVPYTFGQGTKLEIKGGSEGKSSGSGSESKSTGGSQVQLQESGPGLVKPSDTLSLTCAVSGNSITSDYAWNWIRQFPGKGLEWMGYISYSGSTTYNPSLKSRVTISRDTSKNQFSLKLSSVTPVDTAVYYCATGYYYGSGFWGQGTLVTVSSTSTPAPRPPTPAPTIASQPLSLRPEACRPAAGGAVHTRGLDFACDIYIWAPLAGTCGVLLLSLVITLYCKRGRKKLLYIFKQPFMRPVQTTQEEDGCSCRFPEEEEGGCELRVKFSRSADAPAYKQGQNQLYNELNLGRREEYDVLDKRRGRDPEMGGKPRRKNPQEGLYNELQKDKMAEAYSEIGMKGERRRGKGHDGLYQGLSTATKDTYDALHMQALPPR
notes: Chimeric antigen receptor on JNL cells or primary human T cells; also called hK2 CAR; pDR000083444
For B3, the “% of cells in the hK2CAR+ CD3+ gate” value in assay [2] was found to be 30.6%.

B4: CAR6 (LH_LCHumanized_HCF3_20AA) (other)
chain: DIVLTQSPDSLAVSLGERATINCKASESVEYFGTSLMHWYQQKPGQPPKLLIYAASNRESGVPDRFSGSGSGTDFTLTISSLQAEDVAVYYCQQTRKVPYTFGQGTKLEIKGGSEGKSSGSGSESKSTGGSQVQLQESGPGLVKPSDTLSLTCAVSGNSITSDYAWNWIRQFPGKGLEWIGYISYSGSTTYNPSLKSRVTISRDTSKNQFSLKLSSVTPVDTAVYYCATGYYYGSGFWGQGTLVTVSSTSTPAPRPPTPAPTIASQPLSLRPEACRPAAGGAVHTRGLDFACDIYIWAPLAGTCGVLLLSLVITLYCKRGRKKLLYIFKQPFMRPVQTTQEEDGCSCRFPEEEEGGCELRVKFSRSADAPAYKQGQNQLYNELNLGRREEYDVLDKRRGRDPEMGGKPRRKNPQEGLYNELQKDKMAEAYSEIGMKGERRRGKGHDGLYQGLSTATKDTYDALHMQALPPR
notes: Chimeric antigen receptor on JNL cells or primary human T cells; also called hK2 CAR; pDR000083440
Regarding B4, the “% of cells in the hK2CAR+ CD3+ gate” value in assay [3] was 27.8%.

B5: CAR7 (LH_LCHumanized_HCG5_20AA) (other)
chain: DIVLTQSPDSLAVSLGERATINCKASESVEYFGTSLMHWYQQKPGQPPKLLIYAASNRESGVPDRFSGSGSGTDFTLTISSLQAEDVAVYYCQQTRKVPYTFGQGTKLEIKGGSEGKSSGSGSESKSTGGSQVQLQESGPGLVKPSDTLSLTCAVSGNSITSDYAWNWIRQFPGKGLEWMGYISYSGSTTYNPSLKSRVTISRDTSKNQFSLKLSSVTPVDTAVYYCATGYYYGSGFWGQGTLVTVSSTSTPAPRPPTPAPTIASQPLSLRPEACRPAAGGAVHTRGLDFACDIYIWAPLAGTCGVLLLSLVITLYCKRGRKKLLYIFKQPFMRPVQTTQEEDGCSCRFPEEEEGGCELRVKFSRSADAPAYKQGQNQLYNELNLGRREEYDVLDKRRGRDPEMGGKPRRKNPQEGLYNELQKDKMAEAYSEIGMKGERRRGKGHDGLYQGLSTATKDTYDALHMQALPPR
notes: Chimeric antigen receptor on JNL cells or primary human T cells; also called hK2 CAR; pDR000083441
As for B5, in assay [3], the “% of cells in the hK2CAR+ CD3+ gate” value was 35%.

B6: CAR15 (LH_LCHumanized_HCHumanized_20AA) (other)
chain: DIVLTQSPDSLAVSLGERATINCKASESVEYFGTSLMHWYQQKPGQPPKLLIYAASNRESGVPDRFSGSGSGTDFTLTISSLQAEDVAVYYCQQTRKVPYTFGQGTKLEIKGGSEGKSSGSGSESKSTGGSQVQLQESGPGLVKPSDTLSLTCAVSGNSITSDYAWNWIRQPPGKGLEWIGYISYSGSTTYNPSLKSRVTMSRDTSKNQFSLKLSSVTAVDTAVYYCATGYYYGSGFWGQGTLVTVSSTSTPAPRPPTPAPTIASQPLSLRPEACRPAAGGAVHTRGLDFACDIYIWAPLAGTCGVLLLSLVITLYCKRGRKKLLYIFKQPFMRPVQTTQEEDGCSCRFPEEEEGGCELRVKFSRSADAPAYKQGQNQLYNELNLGRREEYDVLDKRRGRDPEMGGKPRRKNPQEGLYNELQKDKMAEAYSEIGMKGERRRGKGHDGLYQGLSTATKDTYDALHMQALPPR
notes: Chimeric antigen receptor with the hu11B6 scFv in VL-linker-VH order, on JNL cells or primary human T cells; also called 11B6_LH; parental 11B6 CAR LH
In the case of B6, in assay [3], the “% of cells in the hK2CAR+ CD3+ gate” value stood at 22.6%.

B7: KL2B467 Fab (binding arm listed in Table 39 for hK2/CD3 bispecific antibodies) (bispecific antibody, V domains shown)
VH: QVQLVESGGGVVQPGRSLRLSCAASGFTFSYYGMHWVRQAPGKGLEWVAFISYDGSNKYYADSVKGRFTISRDNSKNTLYLQMNSLRAEDTAVYYCAHLPYSGSYWAFDYWGQGTQVTVSS
VL: QSVLTQPPSVSVAPGQTASITCGGDNIGSKSVHWYQQKPGQAPVLVVYDNSDRPSGIPERFSGSNSGTTATLTISRVEAGDEADYYCQVWDSSSDHPVVFGGGTKVTV
In assay [1], B7 returned an equilibrium dissociation constant (Kd) of 0.09 nM.

B8: KL2B494 Fab (binding arm listed in Table 39 for hK2/CD3 bispecific antibodies) (bispecific antibody, V domains shown)
VH: QVQLVESGGGLVQPGGSLRLSCAASGFTFSHYAMSWVRQAPGKGLEWVSTIGGSGGSTYYADSVKGRFTISRDNSKNTLYLQMNSLRAEDTAVYYCAKPHIVMVTALLYDGMDVWGQGTMVTVSS
VL: SSELTQPPSVSVAPGQTARITCGGNNIGSKSVHWYQQKPGQAPVLVVYDDSDRPSGIPERFSGSNSGNTATLTISRVEAGDEADYYCQVWDSSSDHVVFGGGTKLTVL
With B8, in assay [1], the Kd stood at 0.06 nM.

B9: CAR4 (HL_HCG5_LCB7_20AA) (other)
chain: QVQLQESGPGLVKPSDTLSLTCAVSGNSITSDYAWNWIRQFPGKGLEWMGYISYSGSTTYNPSLKSRVTISRDTSKNQFSLKLSSVTPVDTAVYYCATGYYYGSGFWGQGTLVTVSSGGSEGKSSGSGSESKSTGGSDIVLTQSPDSLAVSLGERATINCKASESVEYFGTSLMHWYQQKPGQPPKLLIYAASNRESGVPDRFSGSGSGTDFTLTISSVQAEDVAVYYCQQTRKVPYTFGQGTKLEIKTSTPAPRPPTPAPTIASQPLSLRPEACRPAAGGAVHTRGLDFACDIYIWAPLAGTCGVLLLSLVITLYCKRGRKKLLYIFKQPFMRPVQTTQEEDGCSCRFPEEEEGGCELRVKFSRSADAPAYKQGQNQLYNELNLGRREEYDVLDKRRGRDPEMGGKPRRKNPQEGLYNELQKDKMAEAYSEIGMKGERRRGKGHDGLYQGLSTATKDTYDALHMQALPPR
notes: Chimeric antigen receptor on JNL cells or primary human T cells; also called hK2 CAR; pDR000083437
As for B9, in assay [2], the “% of cells in the hK2CAR+ CD3+ gate” value came to 42.7%.

B10: CAR3 (HL_HCF3_LCB7_20AA) (other)
chain: QVQLQESGPGLVKPSDTLSLTCAVSGNSITSDYAWNWIRQFPGKGLEWIGYISYSGSTTYNPSLKSRVTISRDTSKNQFSLKLSSVTPVDTAVYYCATGYYYGSGFWGQGTLVTVSSGGSEGKSSGSGSESKSTGGSDIVLTQSPDSLAVSLGERATINCKASESVEYFGTSLMHWYQQKPGQPPKLLIYAASNRESGVPDRFSGSGSGTDFTLTISSVQAEDVAVYYCQQTRKVPYTFGQGTKLEIKTSTPAPRPPTPAPTIASQPLSLRPEACRPAAGGAVHTRGLDFACDIYIWAPLAGTCGVLLLSLVITLYCKRGRKKLLYIFKQPFMRPVQTTQEEDGCSCRFPEEEEGGCELRVKFSRSADAPAYKQGQNQLYNELNLGRREEYDVLDKRRGRDPEMGGKPRRKNPQEGLYNELQKDKMAEAYSEIGMKGERRRGKGHDGLYQGLSTATKDTYDALHMQALPPR
notes: Chimeric antigen receptor on JNL cells or primary human T cells; also called hK2 CAR; pDR000083436
In the case of B10, in assay [2], the “% of cells in the hK2CAR+ CD3+ gate” value stood at 29.4%.

(Values after patent US20260152559A1 (Janssen / Centocor, published 2026).)
